Reference: publication PMC11603662

What was measured:
CaV2.1-F1406C (human) = experiment: co-IP; HEK293T cells coexpressing the two proteins, 10 uM MG132 for 24 h; lysates immunoprecipitated with anti-Myc on protein A/G sepharose, 16 h at 4 C; immunoblot
[1] = target: Myc-tagged human long carboxy-terminal CaV2.1 (CaV2.1-6myc) (human) (UniProt O00555); experiment: as above

Sequence of CaV2.1-F1406C (human) (O00555 whole entry, stated change not applied): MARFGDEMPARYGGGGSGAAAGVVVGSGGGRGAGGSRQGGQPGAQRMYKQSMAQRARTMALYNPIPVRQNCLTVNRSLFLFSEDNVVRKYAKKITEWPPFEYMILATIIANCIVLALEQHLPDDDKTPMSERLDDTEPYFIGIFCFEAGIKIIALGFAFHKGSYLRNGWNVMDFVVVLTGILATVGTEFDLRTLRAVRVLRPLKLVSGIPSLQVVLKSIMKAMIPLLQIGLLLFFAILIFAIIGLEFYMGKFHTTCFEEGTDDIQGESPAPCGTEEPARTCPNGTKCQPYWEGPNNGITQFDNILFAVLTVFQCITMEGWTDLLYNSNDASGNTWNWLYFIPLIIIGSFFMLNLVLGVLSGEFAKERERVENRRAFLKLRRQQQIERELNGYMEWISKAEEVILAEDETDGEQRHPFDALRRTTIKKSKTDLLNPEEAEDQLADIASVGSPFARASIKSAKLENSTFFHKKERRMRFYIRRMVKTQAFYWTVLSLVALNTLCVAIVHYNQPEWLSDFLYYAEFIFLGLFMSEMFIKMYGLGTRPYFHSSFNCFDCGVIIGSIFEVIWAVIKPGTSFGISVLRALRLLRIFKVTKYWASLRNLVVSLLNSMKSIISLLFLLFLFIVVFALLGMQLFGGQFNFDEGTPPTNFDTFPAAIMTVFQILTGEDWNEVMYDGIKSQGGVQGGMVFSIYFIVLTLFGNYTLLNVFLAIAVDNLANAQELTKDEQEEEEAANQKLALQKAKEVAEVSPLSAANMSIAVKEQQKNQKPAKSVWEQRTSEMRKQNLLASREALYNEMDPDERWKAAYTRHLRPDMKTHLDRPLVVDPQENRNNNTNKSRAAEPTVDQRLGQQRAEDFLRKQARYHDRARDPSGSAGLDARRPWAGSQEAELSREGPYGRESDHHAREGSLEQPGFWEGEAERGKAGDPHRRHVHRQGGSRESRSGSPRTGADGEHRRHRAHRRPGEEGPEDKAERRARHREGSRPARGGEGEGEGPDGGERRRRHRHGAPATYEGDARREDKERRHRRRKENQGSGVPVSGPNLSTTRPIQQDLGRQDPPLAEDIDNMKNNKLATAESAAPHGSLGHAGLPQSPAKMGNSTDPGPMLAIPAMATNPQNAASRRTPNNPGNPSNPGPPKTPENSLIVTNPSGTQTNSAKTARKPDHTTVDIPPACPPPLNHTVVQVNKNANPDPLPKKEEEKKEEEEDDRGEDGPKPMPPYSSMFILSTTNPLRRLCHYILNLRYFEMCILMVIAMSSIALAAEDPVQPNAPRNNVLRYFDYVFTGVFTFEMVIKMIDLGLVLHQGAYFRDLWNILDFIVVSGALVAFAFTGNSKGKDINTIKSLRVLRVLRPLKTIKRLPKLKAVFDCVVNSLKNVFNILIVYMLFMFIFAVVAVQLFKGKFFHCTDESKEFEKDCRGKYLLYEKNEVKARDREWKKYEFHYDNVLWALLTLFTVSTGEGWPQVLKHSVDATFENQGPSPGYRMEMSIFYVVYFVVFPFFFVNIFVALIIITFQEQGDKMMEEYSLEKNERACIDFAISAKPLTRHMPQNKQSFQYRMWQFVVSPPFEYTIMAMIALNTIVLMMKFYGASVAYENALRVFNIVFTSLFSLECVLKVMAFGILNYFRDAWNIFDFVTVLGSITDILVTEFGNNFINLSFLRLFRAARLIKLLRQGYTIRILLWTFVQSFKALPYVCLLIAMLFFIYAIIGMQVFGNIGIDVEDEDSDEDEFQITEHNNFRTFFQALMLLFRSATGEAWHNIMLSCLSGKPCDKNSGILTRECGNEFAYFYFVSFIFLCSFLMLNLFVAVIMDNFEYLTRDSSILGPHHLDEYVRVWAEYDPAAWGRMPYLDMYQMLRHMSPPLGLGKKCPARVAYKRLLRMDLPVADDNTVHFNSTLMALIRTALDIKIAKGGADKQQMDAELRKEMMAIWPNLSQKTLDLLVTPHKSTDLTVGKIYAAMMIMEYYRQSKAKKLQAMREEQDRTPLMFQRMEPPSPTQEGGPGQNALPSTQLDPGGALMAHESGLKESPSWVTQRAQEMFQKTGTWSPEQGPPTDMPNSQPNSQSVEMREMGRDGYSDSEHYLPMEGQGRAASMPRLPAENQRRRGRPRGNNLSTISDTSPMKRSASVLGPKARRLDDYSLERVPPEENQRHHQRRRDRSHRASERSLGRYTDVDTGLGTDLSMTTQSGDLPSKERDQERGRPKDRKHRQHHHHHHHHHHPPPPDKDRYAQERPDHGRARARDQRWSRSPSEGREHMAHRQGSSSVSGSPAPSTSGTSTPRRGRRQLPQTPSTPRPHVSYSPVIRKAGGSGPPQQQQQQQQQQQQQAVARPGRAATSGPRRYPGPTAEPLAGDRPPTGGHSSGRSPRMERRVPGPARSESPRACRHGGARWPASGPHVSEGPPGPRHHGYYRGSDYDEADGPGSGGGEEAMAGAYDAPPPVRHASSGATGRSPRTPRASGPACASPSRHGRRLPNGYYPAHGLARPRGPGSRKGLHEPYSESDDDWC

normalized coimmunoprecipitated Pin1 protein level (relative to CaV2.1 WT) (CaV2.1-F1406C (human)): 1.32 | normalized coimmunoprecipitated Pin1 protein level (relative to CaV2.1 WT) [1]: 1
Substance: HA-tagged rat Pin1 (HA-Pin1) (enzyme)
